{
  "source": "patent US20240052038A1",
  "key": {"[1]": {"molecular_target": "Fc-γ receptors expressed on the immune cells", "assay": "cell-based or functional assay"}, "[2]": {"molecular_target": "Fc-γ receptors expressed on the immune cells", "assay": "cell-based or functional assay", "remark": "listed apart in the source"}, "[3]": {"molecular_target": "mouse PD-L1 on CD3+ T lymphocytes (mouse) (UniProt Q9EP73)", "sequence (Q9EP73 19-290)": "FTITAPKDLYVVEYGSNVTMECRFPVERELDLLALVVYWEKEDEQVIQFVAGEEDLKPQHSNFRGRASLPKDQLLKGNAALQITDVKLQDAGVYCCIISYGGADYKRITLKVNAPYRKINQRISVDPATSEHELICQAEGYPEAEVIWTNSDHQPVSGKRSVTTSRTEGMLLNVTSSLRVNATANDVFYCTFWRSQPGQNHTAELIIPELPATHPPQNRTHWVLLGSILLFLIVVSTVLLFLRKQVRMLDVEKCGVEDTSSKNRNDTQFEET", "assay": "receptor occupancy on blood CD3+ T cells by flow cytometry, mice dosed with 1.5 mg/mouse, day 10"}, "[4]": {"molecular_target": "mouse PD-L1 on CD3+ T lymphocytes (mouse) (UniProt Q9EP73)", "assay": "receptor occupancy on blood CD3+ T cells by flow cytometry, correlated with serum antibody concentration after a single injection in mice"}},
  "note": "Where two headings read alike, the source gives them in different places.",
  "data": [
    {"substance": "Rituximab (antibody)", "values": [
      {"measurement": "EC50 (ADCC, Raji/CD-20 target cells, E/T 25:1)", "setting": "[1]", "result": 2.1, "unit": "ng/mL"},
      {"measurement": "Target cell lysis (ADCC, Raji/CD-20 target cells, E/T 25:1)", "setting": "[1]", "result": 53.5, "unit": "%"},
      {"measurement": "EC50 (ADCC, Raji/CD-20 target cells, E/T 25:1)", "setting": "[2]", "result": 1.9, "unit": "ng/mL"},
      {"measurement": "Target cell lysis (ADCC, Raji/CD-20 target cells, E/T 25:1)", "setting": "[2]", "result": 43.6, "unit": "%"},
      {"measurement": "Target cell lysis (ADCC, Raji/CD-20 target cells, PBMC effectors, E/T 25:1)", "setting": "[2]", "result": 48.8, "unit": "%"}
    ]},
    {"substance": "rat anti-mouse PD-L1 monoclonal antibody (clone 10F.9G2, BioXCell)", "values": [
      {"measurement": "receptor occupancy", "setting": "[3]", "result": "> 60", "unit": "%"},
      {"measurement": "serum antibody concentration above which complete target occupancy was achieved", "setting": "[4]", "result": 1, "unit": "nM"}
    ]},
    {"substance": "biosimilar of atezolizumab (antibody)", "values": [
      {"measurement": "EC50 (ADCC, CHO-K1/PD-L1 target cells, E/T 25:1; no dose response curve)", "setting": "[2]", "result": 9.5, "unit": "ng/mL"},
      {"measurement": "Target cell lysis (ADCC, CHO-K1/PD-L1 target cells, E/T 25:1)", "setting": "[2]", "result": 1.4, "unit": "%"}
    ]}
  ]
}
